The target in the data set is Complement component 3 (C3) (Homo sapiens) (UniProt P01024+P01024). Briefly: filter. The note with it: 3'-3' idT.
Where [1] appears, read: all P = NapdU, 2'-OMe at 1,2,3,5,7,9,10,13,19,20,22-28, C3-spacer replaces C17, SB18T0.01, 37C.

From patent US20170166895 come the findings set out here.

Complement component 3 (C3) (Homo sapiens), sequence (P01024 23-667, chain 1 of 2): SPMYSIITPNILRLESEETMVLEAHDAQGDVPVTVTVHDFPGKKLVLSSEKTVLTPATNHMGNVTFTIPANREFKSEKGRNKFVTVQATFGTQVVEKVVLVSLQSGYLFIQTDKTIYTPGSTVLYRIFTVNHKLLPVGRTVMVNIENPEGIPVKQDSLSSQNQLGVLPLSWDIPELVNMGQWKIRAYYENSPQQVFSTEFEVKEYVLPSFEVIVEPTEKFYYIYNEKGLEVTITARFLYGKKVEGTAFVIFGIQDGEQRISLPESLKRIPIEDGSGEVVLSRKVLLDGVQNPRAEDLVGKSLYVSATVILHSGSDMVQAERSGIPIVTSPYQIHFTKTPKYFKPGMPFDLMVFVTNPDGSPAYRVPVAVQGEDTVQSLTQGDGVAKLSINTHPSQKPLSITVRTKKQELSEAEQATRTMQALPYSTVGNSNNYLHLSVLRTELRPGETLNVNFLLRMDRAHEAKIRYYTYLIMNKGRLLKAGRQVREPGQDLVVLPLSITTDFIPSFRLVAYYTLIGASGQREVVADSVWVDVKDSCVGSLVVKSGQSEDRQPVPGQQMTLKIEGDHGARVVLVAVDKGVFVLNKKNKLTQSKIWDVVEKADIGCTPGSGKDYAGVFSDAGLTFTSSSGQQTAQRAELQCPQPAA
Complement component 3 (C3) (Homo sapiens), sequence (P01024 672-1663, chain 2 of 2): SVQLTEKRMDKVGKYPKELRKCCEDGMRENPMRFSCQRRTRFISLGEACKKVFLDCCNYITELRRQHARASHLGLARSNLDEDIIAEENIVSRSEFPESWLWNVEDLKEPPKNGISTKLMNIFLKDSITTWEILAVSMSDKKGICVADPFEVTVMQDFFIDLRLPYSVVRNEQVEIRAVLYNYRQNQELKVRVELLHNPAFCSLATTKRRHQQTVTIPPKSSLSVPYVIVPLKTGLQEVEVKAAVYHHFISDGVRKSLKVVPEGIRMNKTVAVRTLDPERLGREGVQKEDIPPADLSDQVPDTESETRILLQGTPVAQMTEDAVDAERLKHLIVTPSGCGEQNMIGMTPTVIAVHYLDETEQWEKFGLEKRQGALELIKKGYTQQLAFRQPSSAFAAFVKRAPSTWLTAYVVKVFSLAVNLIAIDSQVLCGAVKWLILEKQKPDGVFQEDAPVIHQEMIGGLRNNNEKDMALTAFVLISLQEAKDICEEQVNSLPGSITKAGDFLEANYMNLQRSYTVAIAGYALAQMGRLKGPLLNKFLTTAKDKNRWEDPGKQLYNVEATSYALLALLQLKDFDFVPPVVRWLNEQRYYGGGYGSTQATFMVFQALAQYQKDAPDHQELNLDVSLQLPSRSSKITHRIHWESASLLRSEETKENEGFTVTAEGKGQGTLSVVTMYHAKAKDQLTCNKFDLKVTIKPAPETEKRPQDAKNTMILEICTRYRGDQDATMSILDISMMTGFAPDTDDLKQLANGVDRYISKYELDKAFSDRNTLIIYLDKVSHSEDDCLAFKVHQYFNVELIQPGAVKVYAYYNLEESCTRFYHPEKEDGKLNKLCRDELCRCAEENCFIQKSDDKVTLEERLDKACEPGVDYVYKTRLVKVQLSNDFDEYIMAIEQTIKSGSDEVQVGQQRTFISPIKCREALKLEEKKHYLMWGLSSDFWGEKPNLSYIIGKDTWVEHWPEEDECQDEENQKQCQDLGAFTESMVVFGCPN

Broadly, the Kd is the equilibrium constant for the complex coming apart. The low end stands for a tighter complex, the high end for a looser complex. Where the note is “all U = NapdU, 2'-OMe at A6, SB18T0.01, 37C”, “CGGUGACUCAAUAGUCCGUACGUUCCCG [8491-94_64]” registered a Kd of 0.512 nM. “CGGUGACUCAAUAGUCCGUACGUUCCCG [8491-94_65]” registered a Kd (P = NapdU (all U), 2'-OMe C7, SB18T0.01, 5 mM MgCl2, 37 C) of 0.0316 nM. For the setting “all U = NapdU, 2'-OMe at NapdU8, SB18T0.01, 37C”, “CGGUGACUCAAUAGUCCGUACGUUCCCG [8491-94_66]” registered an equilibrium dissociation constant (Kd) of 0.149 nM. Where the note is “P = NapdU (all U), 2'-OMe C9, SB18T0.01, 5 mM MgCl2, 37 C”, “CGGUGACUCAAUAGUCCGUACGUUCCCG [8491-94_67]” displayed a Kd of 0.0699 nM. “CGGUGACUCAAUAGUCCGUACGUUCCCG [8491-94_68]”: the Kd (P = NapdU (all U), 2'-OMe A10, SB18T0.01, 5 mM MgCl2, 37 C) is 0.0424 nM.

In turn, “CGGUGACUCAAUAGUCCGUACGUUCCCG [8491-94_69]” displayed a Kd (P = NapdU (all U), 2'-OMe A11, SB18T0.01, 5 mM MgCl2, 37 C) of 0.272 nM. Regarding “CGGUGACUCAAUAGUCCGUACGUUCCCG [8491-94_70]”, for the setting “P = NapdU (all U), 2'-OMe P12, SB18T0.01, 5 mM MgCl2, 37 C”, the Kd came to 0.338 nM. “CGGUGACUCAAUAGUCCGUACGUUCCCG [8491-94_71]” returned a Kd (P = NapdU (all U), 2'-OMe A13, SB18T0.01, 5 mM MgCl2, 37 C) of 0.0256 nM. “CGGUGACUCAAUAGUCCGUACGUUCCCG [8491-94_72]” came in with a Kd (all U = NapdU, 2'-OMe at G14, SB18T0.01, 37C) of 6.17 nM. With “CGGUGACUCAAUAGUCCGUACGUUCCCG [8491-94_73]”, the Kd (all U = NapdU, 2'-OMe at NapdU15, SB18T0.01, 37C) came to 1.32 nM. “CGGUGACUCAAUAGUCCGUACGUUCCCG [8491-94_74]”: the Kd (P = NapdU (all U), 2'-OMe C16, SB18T0.01, 5 mM MgCl2, 37 C) turned out to be 0.192 nM. With “CGGUGACUCAAUAGUCCGUACGUUCCCG [8491-94_75]”, for the setting “P = NapdU (all U), 2'-OMe C17, SB18T0.01, 5 mM MgCl2, 37 C”, the Kd was found to be 0.214 nM. As for “CGGUGACUCAAUAGUCCGUACGUUCCCG [8491-94_76]”, for the setting “all U = NapdU, 2'-OMe at G18, SB18T0.01, 37C”, the Kd was 0.93 nM.

Sequence “CGGUGACUCAAUAGUCCGUACGUUCCCG [8491-94_77]” yielded a Kd (P = NapdU (all U), 2'-OMe P19, SB18T0.01, 5 mM MgCl2, 37 C) of 0.0262 nM. “CGGUGACUCAAUAGUCCGUACGUUCCCG [8491-94_78]”: the Kd (P = NapdU (all U), 2'-OMe A20, SB18T0.01, 5 mM MgCl2, 37 C) was found to be 0.0718 nM.

Under “P = NapdU (all U), 2'-OMe C21, SB18T0.01, 5 mM MgCl2, 37 C”, “CGGUGACUCAAUAGUCCGUACGUUCCCG [8491-94_79]” came in with an equilibrium dissociation constant (Kd) of 0.273 nM. In turn, “CGGUGACUCAAUAGUCCGUACGUUCCCG [8491-94_80]” had an equilibrium dissociation constant (Kd) (P = NapdU (all U), 2'-OMe G22, SB18T0.01, 5 mM MgCl2, 37 C) of 0.0678 nM.

Take “CGGUGACUCAAUAGUCCGUACGUUCCCG [8491-94_81]”: the Kd (P = NapdU (all U), 2'-OMe P23, SB18T0.01, 5 mM MgCl2, 37 C) came out at 0.0243 nM. With “CGGUGACUCAAUAGUCCGUACGUUCCCG [8491-94_82]”, the Kd (all U = NapdU, 2'-OMe at NapdU24, SB18T0.01, 37C) was 0.0118 nM. Sequence “CGGUGACUCAAUAGUCCGUACGUUCCCG [8491-94_83]” came in with a Kd (P = NapdU (all U), 2'-OMe C25, SB18T0.01, 5 mM MgCl2, 37 C) of 0.0488 nM.

“CGGUGACUCAAUAGUCCGUACGUUCCCG [8491-94_84]” yielded a Kd (P = NapdU (all U), 2'-OMe C26, SB18T0.01, 5 mM MgCl2, 37 C) of 0.0738 nM. Turning to “CGGUGACUCAAUAGUCCGUACGUUCCCG [8491-94_85]”, for the setting “P = NapdU (all U), 2'-OMe C27, SB18T0.01, 5 mM MgCl2, 37 C”, the Kd is 0.0524 nM. For the sequence “CGGUGACUCAAUAGUCCGUACGUUCCCG [8491-94_86]”, the Kd (P = NapdU (all U), 2'-OMe G28, SB18T0.01, 5 mM MgCl2, 37 C) came out at 0.0344 nM. As for “CGGUGACUCAAUAGUCCGUACGUUCCCG [8491-94_88]”, the Kd (all U = NapdU, 2'-OMe at 1,3,5,7,13,28, SB18T0.01, 37C) was found to be 0.0248 nM.

For the sequence “CGGUGACUCAAUAGUCCGUACGUUCCCG [8491-94_89]”, the Kd (all U = NapdU, 2'-OMe at 1,3,5,7,10,13,28, SB18T0.01, 37C) was 0.0173 nM.

Under “all U = NapdU, 2'-OMe at 1,2,3,5,7,10,13,19,23,24,26,27,28, SB18T0.01, 37C”, “CGGUGACUCAAUAGUCCGUACGUUCCCG [8491-94_93]” yielded a Kd of 0.0152 nM. Under “all U = NapdU, 2'-OMe at 1,2,3,5,7,10,13,19,23-28, SB18T0.01, 37C”, “CGGUGACUCAAUAGUCCGUACGUUCCCG [8491-94_94]” gave a Kd of 0.0557 nM.

On to “CGGUGACUCAAUAGUCCGUACGUUCCCG [8491-94_95]”, for which the Kd (all U = NapdU, 2'-OMe at 1,2,3,5,7,10,13,19,20,23-28, SB18T0.01, 37C) was 0.0357 nM.

As for “CGGUGACUCAAUAGUCCGUACGUUCCCG [8491-94_96]”, the Kd (all U = NapdU, 2'-OMe at 1,2,3,5,7,9,10,13,19,20,23-28, SB18T0.01, 37C) was 0.0364 nM. For “CGGUGACUCAAUAGUCCGUACGUUCCCG [8491-94_101]”, for the setting “all U = NapdU, 2'-OMe at 1,2,3,5,7,9,10,13,20,22,25-28, SB18T0.01, 37C”, the Kd amounted to 0.219 nM. “CGGUGACUCAAUAGUCCGUACGUUCCCGG [8491-94_29]” came in with a Kd (all U = NapdU, SB18T0.01, 37C) of 0.0581 nM. For the setting “all U = NapdU, C3-spacer replaces C1, SB18T0.01, 37C”, “CGGUGACUCAAUAGUCCGUACGUUCCCGG [8491-94_30]” registered a Kd of 0.0622 nM. Sequence “CGGUGACUCAAUAGUCCGUACGUUCCCGG [8491-94_31]” returned a Kd (all U = NapdU, C3-spacer replaces C2, SB18T0.01, 37C) of 0.14 nM. Under “all U = NapdU, SB18T0.01, 37C”, “CGGUGACUCAAUAGUCCGUACGUUCCCGGUCCGAACGCGGAGGA [8491-94_9]” had a Kd of 0.243 nM. On to “CGGUGACUCAAUAGUCCGUACGUUCCG [8491-94_87]”, for which the Kd (all U = NapdU, SB18T0.01, 37C) was 0.154 nM. For “CGGUGACUCAAUAGUCCGUATGUUCCCG [8491-94_132]”, the equilibrium dissociation constant (Kd) (all P = NapdU, T = dT, 2'-OMe at 1,2,3,5,7,9,10,13,19,20,22-28, SB18T0.01, 37C) turned out to be 12.7 nM. For the sequence “CGGUGACUCAAUAGUCGUACGUUCCCG [8491-94_58]”, the Kd (all U = NapdU, C3-spacer replaces C17, SB18T0.01, 37C) came to 0.787 nM. In turn, “CGGUGACUCAAUAGUCGUACGUUCCCG [8491-94_98]” registered a Kd (all U = NapdU, 2'-OMe at 1,2,3,5,7,9,10,13,19,20,22-28, C3-spacer replaces C17, SB18T0.01, 37C) of 0.095 nM. Sequence CGGUGACUCAAUAGUCGUACGUUCCG [8491-94_56] came in with a Kd (all U = NapdU, C3-spacer replaces C17, C25, SB18T0.01, 37C) of 0.0464 nM. Take CGGUGACUCAAUAGUCGUACGUUCCG [8491-94_99]: the Kd (all U = NapdU, 2'-OMe at 1,2,3,5,7,9,10,13,19,20,22,23,24,26,27,28, C3-spacer replaces C17, C25, SB18T0.01, 37C) was determined as 0.167 nM. For “CGGUGACUCAAUAGUCGUATGUUCCCG [8491-94_133]”, under “all P = NapdU, T = dT, 2'-OMe at 1,2,3,5,7,9,10,13,19,20 and all residues after T21, C3-spacer replaces C17, SB18T0.01, 37C”, the Kd is 5.06 nM. Regarding CGGUGACUUAGUCCGUACGUUCCCG [8491-94_57], the Kd (all U = NapdU, hexaethylene glycol (Heg) replaces C9-A10-A11, SB18T0.01, 37C) was 0.245 nM. CGGUGAUAAUAGUCGUACGUUCCG [8491-94_55] registered a Kd (all U = NapdU, C3-spacer replaces C7, C9, C17, C25, SB18T0.01, 37C) of 0.0415 nM. In the case of CGGUGAUCAAUAGUCGUACGUUCCG [8491-94_54], the Kd (all U = NapdU, C3-spacer replaces C7, C17, C25, SB18T0.01, 37C) is 0.0221 nM. On to CGGUGAUCAAUAGUCGUACGUUCCG [8491-94_100], for which, under “all U = NapdU, 2'-OMe at 1,2,3,5,9,10,13,19,20,22,23,24,26,27,28, C3-spacer replaces C7, C17, C25, SB18T0.01, 37C”, the Kd amounted to 0.0794 nM.

As for CGGUGAUCAAUAGUCGUACGUUCCG [8491-94_102], for the setting “all U = NapdU, 2'-OMe at 1,2,3,5,10,13,26,27,28, C3-spacer replaces C7, C17, C25, SB18T0.01, 37C”, the Kd was found to be 0.0603 nM.

For the sequence “GGGUGACUCAAUAGUCCGUACAUUCCCC [8491-94_135]”, under “all P = NapdU, 2'-OMe at 1,2,3,5,7,9,10,13,19,20,22-28, SB18T0.01, 37C”, the Kd is 15.3 nM.

“GGGUGACUCAAUAGUCCGUACGUUCCCC [8491-94_127]”: the Kd (all U = NapdU, 2'-OMe at 1,2,3,5,7,9,10,13,19,20,22-28, SB18T0.01, 37C) amounted to 0.045 nM. The sequence “GGGUGACUCAAUAGUCGUACAUUCCCC [8491-94_136]” yielded a Kd under setting [1] of 9.1 nM. Regarding “GGGUGACUCAAUAGUCGUACGUUCCCC [8491-94_134]”, under setting [1], the Kd was determined as 0.107 nM. In turn, “TGGUGACUCAAUAGUCCGUACGUUCCCA [8491-94_128]” yielded a dissociation constant (Kd) (all P = NapdU, T1 = dT, 2'-OMe at 2,3,5,7,9,10,13,19,20,22-28, SB18T0.01, 37C) of 0.038 nM. In turn, “TGGUGACUCAAUAGUCCGUATGUUCCCA [8491-94_130]” yielded a Kd (all P = NapdU, T = dT, 2'-OMe at 2,3,5,7,9,10,13,19,20,22-28, SB18T0.01, 37C) of 17.9 nM.

For the sequence “TGGUGACUCAAUAGUCGUACGUUCCCA [8491-94_129]”, the Kd (all P = NapdU, T1 = dT, 2'-OMe at 2,3,5,7,9,10,13,19,20,22-28, C3-spacer replaces C17, SB18T0.01, 37C) came to 0.0179 nM.
